# Source: publication PMC4557345
# Biological target: Drosophila Orai (dOrai), expressed in HEK293T cells (Drosophila) (UniProt Q9U6B8)
# UniProt Q9U6B8, sequence (Q9U6B8 whole entry): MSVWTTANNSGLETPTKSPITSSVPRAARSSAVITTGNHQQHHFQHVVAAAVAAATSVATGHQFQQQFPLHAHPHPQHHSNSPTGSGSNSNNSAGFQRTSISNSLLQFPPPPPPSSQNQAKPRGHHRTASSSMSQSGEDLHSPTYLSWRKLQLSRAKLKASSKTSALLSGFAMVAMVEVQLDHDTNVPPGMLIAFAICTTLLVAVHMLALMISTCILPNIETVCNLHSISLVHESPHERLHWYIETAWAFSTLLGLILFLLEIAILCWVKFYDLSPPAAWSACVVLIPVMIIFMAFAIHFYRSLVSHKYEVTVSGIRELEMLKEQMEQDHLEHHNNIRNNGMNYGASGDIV
substance,measurement,value
dmBACCS2-N425S,"recovery time constant of the light-activated whole-cell current (patch clamp, HEK293T), against dmBACCS2 (fold of dmBACCS2)",< 0.5
dmBACCS2-V416L,"recovery time constant of the light-activated whole-cell current (patch clamp, HEK293T), against dmBACCS2 (fold of dmBACCS2)",> 100
